In series [1] the test system is HeLa Kyoto. In words: solubility change mitosis vs G1/S (difference of NP-40 vs SDS log2 ratios) (log2 ratio difference); higher = more soluble in mitosis.
For series [2], the system named is HeLa Kyoto. In words: thermal stability score vs G1/S (z-score of summed log2 fold changes over temperatures); higher = more thermally stable than in G1/S.
The test system of series [3] is HeLa Kyoto. In words: solubility in G1/S (NP-40 vs SDS abundance) (log2 ratio); higher = more soluble. The conditions noted are these: cell cycle stage: G1/S.
Series [4] has as its system HeLa Kyoto. In words: melting temperature (median over replicates), in situ; higher = more thermally stable.
Setting [5] is: cell cycle stage: early G1 (4.5 h after nocodazole release).
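For melting temperature (median over replicates), in situ in this document: HeLa Kyoto cells synchronized by double thymidine or nocodazole block, proteins quantified by TMT10plex mass spectrometry, three independent biological replicates.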
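For solubility change mitosis vs G1/S (difference of NP-40 vs SDS log2 ratios) in this document: synchronized HeLa Kyoto cells (double thymidine block for G1/S, nocodazole release for mitosis), protein amounts in NP-40 versus SDS lysates quantified by mass spectrometry, three biological replicates.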
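For solubility in G1/S (NP-40 vs SDS abundance) in this document: HeLa Kyoto cells arrested at G1/S by double thymidine block, proteins quantified by TMT10plex mass spectrometry in mild NP-40 versus SDS extracts, three biological replicates.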
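For thermal stability score vs G1/S (z-score of summed log2 fold changes over temperatures) in this document: synchronized HeLa Kyoto cells, proteins quantified by TMT10plex mass spectrometry, three biological replicates, mitosis taken 0.5 h after nocodazole release, G1/S directly after double thymidine block.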

Turning to “MLMLFVFGVLLHEVSLSGQNEAPPNTHSIPGEPLYNYASIRLPEEHIPFFLHNNRHIATVCRKDSLCPYKKHLEKLKYCWGYEKSCKPEFRFGYPVCSYVDMGWTDTLESAEDIFWKQADFGYARERLEEMHVLCQPKETSDSSLVCSRYLQYCRATNLYLDLRNIKRNHDRFKEDFFQSGEIGGHCKLDIRTLTSEGQRKSPLQSWFAELQSYTQLNFRPIEDAKCDIVIEKPTYFMKLDAGVNMYHHFCDFINLYITQHVNNSFSTDVYIVMWDTSSYGYGDLFSDTWNAFTDYDVIHLKTYDSKRVCFKEAVFSLLPRMRYGLFYNTPLISGCQNTGLFRAFAQHVLHRLNITQEGPKDGKIRVTILARSTEYRKILNQNELVNALKTVSTFEVQIVDYKYRELGFLDQLRITHNTDIFIGMHGAGLTHLLFLPDWAAVFELYNCEDERCYLDLARLRGVHYITWRRQNKVFPQDKGHHPTLGEHPKFTNYSFDVEEFMYLVLQAADHVLQHPKWPFKKKHDEL [EOGT]”, the “solubility change mitosis (log2)” value in the series on HeLa Kyoto [1] is -0.00851. Besides, the thermal stability score is 2.26 with HeLa Kyoto [2] (setting [5]) and 3.42 in the series with HeLa Kyoto [2] (cell cycle stage: mitosis). Also, the “solubility in G1/S (log2)” value in the series on HeLa Kyoto [3] was -0.298. Moreover, the melting temperature amounted to 53.3 °C with HeLa Kyoto [4] (cell cycle stage: G1/S) and 54.9 °C in the series on HeLa Kyoto [4] (cell cycle stage: mitosis).
In the case of “MLPARCARLLTPHLLLVLVQLSPARGHRTTGPRFLISDRDPQCNLHCSRTQPKPICASDGRSYESMCEYQRAKCRDPTLGVVHRGRCKDAGQSKCRLERAQALEQAKKPQEAVFVPECGEDGSFTQVQCHTYTGYCWCVTPDGKPISGSSVQNKTPVCSGSVTDKPLSQGNSGRKDDGSKPTPTMETQPVFDGDEITAPTLWIKHLVIKDSKLNNTNIRNSEKVYSCDQERQSALEEAQQNPREGIVIPECAPGGLYKPVQCHQSTGYCWCVLVDTGRPLPGTSTRYVMPSCESDARAKTTEADDPFKDRELPGCPEGKKMEFITSLLDALTTDMVQAINSAAPTGGGRFSEPDPSHTLEERVVHWYFSQLDSNSSNDINKREMKPFKRYVKKKAKPKKCARRFTDYCDLNKDKVISLPELKGCLGVSKEGRLV [SMOC1]”, the “solubility change mitosis (log2)” value with HeLa Kyoto [1] is -0.0568. Also, the thermal stability score in the series with HeLa Kyoto [2] (setting [5]) is -1.94; in the series with HeLa Kyoto [2] (cell cycle stage: mitosis), -1.17. Further, in the series on HeLa Kyoto [3], the “solubility in G1/S (log2)” value is 0.221. This sequence yielded a melting temperature in the series on HeLa Kyoto [4] (cell cycle stage: mitosis) of 54.9 °C.
For the sequence “MLPLSIKDDEYKPPKFNLFGKISGWFRSILSDKTSRNLFFFLCLNLSFAFVELLYGIWSNCLGLISDSFHMFFDSTAILAGLAASVISKWRDNDAFSYGYVRAEVLAGFVNGLFLIFTAFFIFSEGVERALAPPDVHHERLLLVSILGFVVNLIGIFVFKHGGHGHSHGSGHGHSHSLFNGALDQAHGHVDHCHSHEVKHGAAHSHDHAHGHGHFHSHDGPSLKETTGPSRQILQGVFLHILADTLGSIGVIASAIMMQNFGLMIADPICSILIAILIVVSVIPLLRESVGILMQRTPPLLENSLPQCYQRVQQLQGVYSLQEQHFWTLCSDVYVGTLKLIVAPDADARWILSQTHNIFTQAGVRQLYVQIDFAAM [SLC30A7]”, in the series on HeLa Kyoto [1], the “solubility change mitosis (log2)” value is -0.278. In addition, the thermal stability score in the series on HeLa Kyoto [2] (setting [5]) is 0.255; in the series with HeLa Kyoto [2] (cell cycle stage: mitosis), -1.45. Further, the “solubility in G1/S (log2)” value in the series with HeLa Kyoto [3] was found to be 0.101. The melting temperature with HeLa Kyoto [4] (cell cycle stage: G1/S) was 57.8 °C; with HeLa Kyoto [4] (cell cycle stage: mitosis) it was 55.4 °C.
As for “MLRRILQRTPGRVGSQGSDLDSSATPINTVDVNNESSSEGFICPQCMKSLGSADELFKHYEAVHDAGNDSGHGGESNLALKRDDVTLLRQEVQDLQASLKEEKWYSEELKKELEKYQGLQQQEAKPDGLVTDSSAELQSLEQQLEEAQTENFNIKQMKDLFEQKAAQLATEIADIKSKYDEERSLREAAEQKVTRLTEELNKEATVIQDLKTELLQRPGIEDVAVLKKELVQVQTLMDNMTLERERESEKLKDECKKLQSQYASSEATISQLRSELAKGPQEVAVYVQELQKLKSSVNELTQKNQTLTENLLKKEQDYTKLEEKHNEESVSKKNIQATLHQKDLDCQQLQSRLSASETSLHRIHVELSEKGEATQKLKEELSEVETKYQHLKAEFKQLQQQREEKEQHGLQLQSEINQLHSKLLETERQLGEAHGRLKEQRQLSSEKLMDKEQQVADLQLKLSRLEEQLKEKVTNSTELQHQLDKTKQQHQEQQALQQSTTAKLREAQNDLEQVLRQIGDKDQKIQNLEALLQKSKENISLLEKEREDLYAKIQAGEGETAVLNQLQEKNHTLQEQVTQLTEKLKNQSESHKQAQENLHDQVQEQKAHLRAAQDRVLSLETSVNELNSQLNESKEKVSQLDIQIKAKTELLLSAEAAKTAQRADLQNHLDTAQNALQDKQQELNKITTQLDQVTAKLQDKQEHCSQLESHLKEYKEKYLSLEQKTEELEGQIKKLEADSLEVKASKEQALQDLQQQRQLNTDLELRATELSKQLEMEKEIVSSTRLDLQKKSEALESIKQKLTKQEEEKKILKQDFETLSQETKIQHEELNNRIQTTVTELQKVKMEKEALMTELSTVKDKLSKVSDSLKNSKSEFEKENQKGKAAILDLEKTCKELKHQLQVQMENTLKEQKELKKSLEKEKEASHQLKLELNSMQEQLIQAQNTLKQNEKEEQQLQGNINELKQSSEQKKKQIEALQGELKIAVLQKTELENKLQQQLTQAAQELAAEKEKISVLQNNYEKSQETFKQLQSDFYGRESELLATRQDLKSVEEKLSLAQEDLISNRNQIGNQNKLIQELKTAKATLEQDSAKKEQQLQERCKALQDIQKEKSLKEKELVNEKSKLAEIEEIKCRQEKEITKLNEELKSHKLESIKEITNLKDAKQLLIQQKLELQGKADSLKAAVEQEKRNQQILKDQVKKEEEELKKEFIEKEAKLHSEIKEKEVGMKKHEENEAKLTMQITALNENLGTVKKEWQSSQRRVSELEKQTDDLRGEIAVLEATVQNNQDERRALLERCLKGEGEIEKLQTKVLELQRKLDNTTAAVQELGRENQSLQIKHTQALNRKWAEDNEVQNCMACGKGFSVTVRRHHCRQCGNIFCAECSAKNALTPSSKKPVRVCDACFNDLQG [EEA1]”, the “solubility change mitosis (log2)” value with HeLa Kyoto [1] stood at 0.0149. Moreover, the figures for the thermal stability score in the series on HeLa Kyoto [2] (setting [5]) and in the series with HeLa Kyoto [2] (cell cycle stage: mitosis) were -3.01 and -4.2, respectively. Moreover, the “solubility in G1/S (log2)” value in the series on HeLa Kyoto [3] amounted to 0.678. Besides, the melting temperature stood at 57.3 °C in the series on HeLa Kyoto [4] (cell cycle stage: G1/S) and 58 °C with HeLa Kyoto [4] (cell cycle stage: mitosis).
With “MLRRRGSPGMGVHVGAALGALWFCLTGALEVQVPEDPVVALVGTDATLCCSFSPEPGFSLAQLNLIWQLTDTKQLVHSFAEGQDQGSAYANRTALFPDLLAQGNASLRLQRVRVADEGSFTCFVSIRDFGSAAVSLQVAAPYSKPSMTLEPNKDLRPGDTVTITCSSYQGYPEAEVFWQDGQGVPLTGNVTTSQMANEQGLFDVHSILRVVLGANGTYSCLVRNPVLQQDAHSSVTITPQRSPTGAVEVQVPEDPVVALVGTDATLRCSFSPEPGFSLAQLNLIWQLTDTKQLVHSFTEGRDQGSAYANRTALFPDLLAQGNASLRLQRVRVADEGSFTCFVSIRDFGSAAVSLQVAAPYSKPSMTLEPNKDLRPGDTVTITCSSYRGYPEAEVFWQDGQGVPLTGNVTTSQMANEQGLFDVHSVLRVVLGANGTYSCLVRNPVLQQDAHGSVTITGQPMTFPPEALWVTVGLSVCLIALLVALAFVCWRKIKQSCEEENAGAEDQDGEGEGSKTALQPLKHSDSKEDDGQEIA [CD276]”, the “solubility change mitosis (log2)” value in the series on HeLa Kyoto [1] was -0.0859. Moreover, the thermal stability score was -2.08 with HeLa Kyoto [2] (setting [5]) and -3.76 with HeLa Kyoto [2] (cell cycle stage: mitosis). For the same sequence, the “solubility in G1/S (log2)” value in the series with HeLa Kyoto [3] amounted to 0.244. In addition, the melting temperature in the series with HeLa Kyoto [4] (cell cycle stage: G1/S) was 59 °C; with HeLa Kyoto [4] (cell cycle stage: mitosis), 57.1 °C.
For the sequence “MLRSVWNFLKRHKKKCIFLGTVLGGVYILGKYGQKKIREIQEREAAEYIAQARRQYHFESNQRTCNMTVLSMLPTLREALMQQLNSESLTALLKNRPSNKLEIWEDLKIISFTRSTVAVYSTCMLVVLLRVQLNIIGGYIYLDNAAVGKNGTTILAPPDVQQQYLSSIQHLLGDGLTELITVIKQAVQKVLGSVSLKHSLSLLDLEQKLKEIRNLVEQHKSSSWINKDGSKPLLCHYMMPDEETPLAVQACGLSPRDITTIKLLNETRDMLESPDFSTVLNTCLNRGFSRLLDNMAEFFRPTEQDLQHGNSMNSLSSVSLPLAKIIPIVNGQIHSVCSETPSHFVQDLLTMEQVKDFAANVYEAFSTPQQLEK [PEX3]”, the “solubility change mitosis (log2)” value in the series on HeLa Kyoto [1] is -0.208. Besides, the thermal stability score was 0.401 in the series with HeLa Kyoto [2] (setting [5]) and 0.184 in the series with HeLa Kyoto [2] (cell cycle stage: mitosis). Further, the “solubility in G1/S (log2)” value with HeLa Kyoto [3] was found to be 0.0923. Moreover, the figures for the melting temperature in the series with HeLa Kyoto [4] (cell cycle stage: G1/S) and in the series with HeLa Kyoto [4] (cell cycle stage: mitosis) were 50 °C and 49 °C, respectively.

These data come from the supplement of paper PMC5998384.
